Assay results taken from article PMC1911201 (Molecular Systems Biology, 2007).

Assays:
Assay in all cases: peptide or protein array
Yjl084c = molecular target: T1, Yjl084c (S. cerevisiae, UniProt P47029 1-1046)
T1 sequence (looked up): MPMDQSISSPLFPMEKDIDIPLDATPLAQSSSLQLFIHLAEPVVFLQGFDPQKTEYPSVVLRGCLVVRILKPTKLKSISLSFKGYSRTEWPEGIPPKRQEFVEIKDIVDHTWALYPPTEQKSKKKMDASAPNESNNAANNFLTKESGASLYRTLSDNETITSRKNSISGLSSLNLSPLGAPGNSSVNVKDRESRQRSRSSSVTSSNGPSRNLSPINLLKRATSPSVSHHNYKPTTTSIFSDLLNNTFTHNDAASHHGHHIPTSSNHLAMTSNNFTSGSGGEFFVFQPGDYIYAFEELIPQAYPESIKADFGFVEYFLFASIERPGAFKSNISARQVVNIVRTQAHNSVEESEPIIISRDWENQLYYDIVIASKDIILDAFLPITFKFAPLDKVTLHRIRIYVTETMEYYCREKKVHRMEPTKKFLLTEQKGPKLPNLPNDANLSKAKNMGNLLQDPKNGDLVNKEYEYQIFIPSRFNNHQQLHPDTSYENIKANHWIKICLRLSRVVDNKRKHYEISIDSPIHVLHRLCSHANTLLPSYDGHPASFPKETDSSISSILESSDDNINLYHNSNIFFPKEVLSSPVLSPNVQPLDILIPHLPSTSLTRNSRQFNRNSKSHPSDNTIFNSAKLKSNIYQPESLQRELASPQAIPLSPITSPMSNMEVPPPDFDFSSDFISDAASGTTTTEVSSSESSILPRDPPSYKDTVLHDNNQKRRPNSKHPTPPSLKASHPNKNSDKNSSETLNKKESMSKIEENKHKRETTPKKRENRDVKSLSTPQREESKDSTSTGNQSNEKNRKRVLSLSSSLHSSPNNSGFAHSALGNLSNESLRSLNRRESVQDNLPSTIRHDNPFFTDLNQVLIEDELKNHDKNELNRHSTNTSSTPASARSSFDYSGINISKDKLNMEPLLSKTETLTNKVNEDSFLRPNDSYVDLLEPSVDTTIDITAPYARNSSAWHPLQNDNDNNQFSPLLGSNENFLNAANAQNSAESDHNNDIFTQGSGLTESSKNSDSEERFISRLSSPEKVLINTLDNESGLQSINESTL

Dis3 = molecular target: T2, Dis3 (S. cerevisiae, UniProt Q08162 1-1001)
T2 sequence (looked up): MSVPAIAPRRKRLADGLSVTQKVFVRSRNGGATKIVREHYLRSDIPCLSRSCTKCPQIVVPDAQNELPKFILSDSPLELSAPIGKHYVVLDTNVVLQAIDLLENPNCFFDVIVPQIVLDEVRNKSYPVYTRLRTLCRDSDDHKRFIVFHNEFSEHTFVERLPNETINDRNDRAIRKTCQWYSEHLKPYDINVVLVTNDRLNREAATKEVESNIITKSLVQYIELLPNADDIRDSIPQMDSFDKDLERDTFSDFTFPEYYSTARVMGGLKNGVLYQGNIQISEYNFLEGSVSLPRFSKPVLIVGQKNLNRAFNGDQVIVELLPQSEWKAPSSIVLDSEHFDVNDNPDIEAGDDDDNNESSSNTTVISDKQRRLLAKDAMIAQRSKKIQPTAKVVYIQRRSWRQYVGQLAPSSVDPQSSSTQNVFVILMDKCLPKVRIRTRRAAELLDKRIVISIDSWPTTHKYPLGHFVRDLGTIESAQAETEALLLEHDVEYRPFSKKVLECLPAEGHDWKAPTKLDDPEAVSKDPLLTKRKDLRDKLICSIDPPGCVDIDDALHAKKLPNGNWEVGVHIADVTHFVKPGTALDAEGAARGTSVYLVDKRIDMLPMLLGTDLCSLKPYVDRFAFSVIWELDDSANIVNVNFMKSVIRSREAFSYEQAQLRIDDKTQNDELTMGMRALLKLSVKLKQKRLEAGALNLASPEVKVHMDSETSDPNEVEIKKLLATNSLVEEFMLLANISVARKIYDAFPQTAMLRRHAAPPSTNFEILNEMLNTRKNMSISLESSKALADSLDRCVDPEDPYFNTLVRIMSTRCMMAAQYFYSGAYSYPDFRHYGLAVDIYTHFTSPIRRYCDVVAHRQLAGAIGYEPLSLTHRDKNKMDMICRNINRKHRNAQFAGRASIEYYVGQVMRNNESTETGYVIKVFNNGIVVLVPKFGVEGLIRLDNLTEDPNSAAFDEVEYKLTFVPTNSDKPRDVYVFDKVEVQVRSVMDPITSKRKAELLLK

Ykr021w = molecular target: T3, Ykr021w (S. cerevisiae, UniProt P36117 1-915)
T3 sequence (looked up): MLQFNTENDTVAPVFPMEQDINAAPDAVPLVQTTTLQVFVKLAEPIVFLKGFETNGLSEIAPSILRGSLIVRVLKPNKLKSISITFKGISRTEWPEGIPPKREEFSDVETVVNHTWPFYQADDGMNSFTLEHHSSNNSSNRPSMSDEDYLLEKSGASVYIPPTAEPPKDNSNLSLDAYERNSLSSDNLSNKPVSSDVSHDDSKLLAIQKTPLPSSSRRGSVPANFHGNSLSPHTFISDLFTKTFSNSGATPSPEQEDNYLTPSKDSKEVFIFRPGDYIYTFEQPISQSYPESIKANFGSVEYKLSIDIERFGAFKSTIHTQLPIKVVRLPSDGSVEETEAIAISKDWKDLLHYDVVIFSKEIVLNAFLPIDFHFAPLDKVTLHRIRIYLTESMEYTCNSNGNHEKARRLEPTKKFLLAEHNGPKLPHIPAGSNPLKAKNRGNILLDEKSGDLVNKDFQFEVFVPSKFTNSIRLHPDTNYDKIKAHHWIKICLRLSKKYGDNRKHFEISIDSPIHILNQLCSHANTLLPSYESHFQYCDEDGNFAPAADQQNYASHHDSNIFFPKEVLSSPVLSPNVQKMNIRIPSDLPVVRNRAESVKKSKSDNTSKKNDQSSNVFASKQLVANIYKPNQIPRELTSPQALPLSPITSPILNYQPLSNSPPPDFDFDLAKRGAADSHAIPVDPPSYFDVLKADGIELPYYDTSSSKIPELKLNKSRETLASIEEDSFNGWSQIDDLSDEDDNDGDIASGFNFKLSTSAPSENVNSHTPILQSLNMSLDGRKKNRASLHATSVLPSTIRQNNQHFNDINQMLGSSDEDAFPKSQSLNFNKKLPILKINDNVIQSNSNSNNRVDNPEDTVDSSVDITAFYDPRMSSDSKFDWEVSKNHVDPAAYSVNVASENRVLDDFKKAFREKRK

binding result (Yjl084c): binds
binding result (Dis3): binds
binding result (Ykr021w): binds
B1: Rsp5 (enzyme)
chain: not shown
modifications: labeled with AlexaFluor 647 (Microscale Protein Labeling kit)
